Measured values published in US5854216A, “Marker for growth hormone-releasing factor receptors” (Universite de Montreal, priority 1996, dated 1998).
Square brackets hold non-standard residues; d marks the D form. Peptide text beside a SMILES is read from it.

target: T1, GRF receptors ([^125 I-Tyr^10 ]hGRF(1-44)NH2 binding sites in rat adenopituitary) (Rattus norvegicus, UniProt Q02644); assay: Competitive binding assay with [^125 I-Tyr^10 ]hGRF(1-44)NH2 on anterior pituitary homogenates; details: not given
T1 construct: from tissue; host or cells: rat anterior pituitary homogenate
T1 sequence (Q02644 23-423 isoform Q02644-2 limits assumed): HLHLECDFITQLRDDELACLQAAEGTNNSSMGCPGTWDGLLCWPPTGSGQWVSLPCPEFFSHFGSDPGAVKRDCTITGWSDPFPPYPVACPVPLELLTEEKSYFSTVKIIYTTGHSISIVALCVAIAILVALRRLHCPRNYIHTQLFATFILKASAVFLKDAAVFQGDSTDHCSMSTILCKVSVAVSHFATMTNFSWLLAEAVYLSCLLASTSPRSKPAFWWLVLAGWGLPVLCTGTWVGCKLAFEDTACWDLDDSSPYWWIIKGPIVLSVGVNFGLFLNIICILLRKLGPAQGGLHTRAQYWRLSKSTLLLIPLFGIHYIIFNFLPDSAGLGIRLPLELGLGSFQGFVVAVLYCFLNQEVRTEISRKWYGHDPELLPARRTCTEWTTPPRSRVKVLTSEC
Description: The binding of [^125 I-Tyr^10 ]hGRF(1-44)NH2 was performed on anterior pituitary homogenates as previously described (Gaudreau P. et al., J. Biol. Chem., 1992, 35:1864-1869). Briefly, anterior pituitaries (pit.) were dissected out, rinsed and homogenized for 8 sec with a Micro Ultrasonic Cell Disrupter™, in ice-cold 50 mM Tris-HCl buffer, pH 7.4, containing 5 mM MgCl2 and 5 mM EDTA (1 pit./0.5 ml). These homogenates were used immediately. Competition studies were performed using 35-50 pM [^125 I-Tyr^10 ]hGRF(1-44)NH2 as radio-ligand,50 μl of homogenate (70 to 75 μg of protein), and increasing concentrations of Nε-CF-[Lys^31 ]hGRF or other GRF analogues (0-1000 nM) or with 2.4 μM rGRF(1-29)NH2 for determination of non-specific binding, in a total volume of 300 μl of Tris-HCl buffer, pH 7.4, containing 5 mM EDTA, 5 mM MgCl2 and 0.42% BSA. Incubations were carried out at 23° C. for 60 min and stopped by centrifugation (12,000 g, 5 min, at 4° C.). The radioactivity content in the pellet was measured by gamma counting. The affinity of hGRF(1-29)NH2 was tested in each experiment to assess the validity of the assay and determine the relative affinity of the analogues. […] The Hill values indicate that all these peptides bind to the high and low affinity GRF binding sites found in the anterior pituitary.

Molecule | IC50 (in words) | affinity for adenopituitary GRF receptors (in words)
4'-benzoyl-phenylalyl^10 ]hGRF(1-29)NH2 [bpa^10] | low nanomolar range | high affinity

same assay, conditions: Table 11

Molecule | Hill coef.
CC[C@H](C)[C@H](NC(=O)[C@H](C)NC(=O)[C@H](CC(=O)O)NC(=O)[C@@H](C)NC(=O)[C@@H](N)Cc1ccc(O)cc1)C(=O)N[C@@H](Cc1ccccc1)C(=O)N[C@H](C(=O)N[C@@H](C)C(=O)N[C@@H](CO)C(=O)N[C@H](Cc1ccc(O)cc1)C(=O)N[C@@H](CCCNC(=N)N)C(=O)N[C@@H](CCCCN)C(=O)N[C@H](C(=O)N[C@@H](CC(C)C)C(=O)N[C@@H](C)C(=O)N[C@@H](CCC(N)=O)C(=O)N[C@@H](CC(C)C)C(=O)N[C@@H](CO)C(=O)N[C@@H](C)C(=O)N[C@@H](CCCNC(=N)N)C(=O)N[C@H](CCCCN)C(=O)N[C@@H](CCCCN)C(=O)N[C@@H](CC(C)C)C(=O)N[C@@H](CCC(N)=O)C(=O)N[C@@H](CC(=O)O)C(=O)N[C@H](C(=O)N[C@@H](CCSC)C(=O)N[C@@H](CO)C(=O)N[C@@H](CCCNC(=N)N)C(N)=O)[C@@H](C)CC)C(C)C)[C@@H](C)O (H-Y[dA]DAIFTAS[dY]RKVLAQLSAR[dK]KLQDIMSR-NH2) | 0.63 ± 0.07
CC[C@H](C)[C@H](NC(=O)[C@H](C)NC(=O)[C@H](CC(=O)O)NC(=O)[C@@H](C)NC(=O)[C@@H](N)Cc1ccc(O)cc1)C(=O)N[C@@H](Cc1ccccc1)C(=O)N[C@H](C(=O)N[C@@H](C)C(=O)N[C@@H](CO)C(=O)N[C@@H](Cc1ccc(O)cc1)C(=O)N[C@@H](CCCNC(=N)N)C(=O)N[C@@H](CCCCN)C(=O)N[C@H](C(=O)N[C@@H](CC(C)C)C(=O)N[C@@H](C)C(=O)N[C@@H](CCC(N)=O)C(=O)N[C@@H](CC(C)C)C(=O)N[C@@H](CO)C(=O)N[C@@H](C)C(=O)N[C@@H](CCCNC(=N)N)C(=O)N[C@@H](CCCCN)C(=O)N[C@@H](CCCCN)C(=O)N[C@@H](CC(C)C)C(=O)N[C@@H](CCC(N)=O)C(=O)N[C@@H](CC(=O)O)C(=O)N[C@H](C(=O)N[C@@H](CCSC)C(=O)N[C@@H](CO)C(=O)N[C@@H](CCCNC(=N)N)C(N)=O)[C@@H](C)CC)C(C)C)[C@@H](C)O [D-Ala^2, Ala^8, Ala^15, Lys^22] (H-Y[dA]DAIFTASYRKVLAQLSARKKLQDIMSR-NH2; N-terminus assumed) | 0.53 ± 0.06

same assay, conditions: Table 11; mean±SD of 2 or mean±SE of 3 experiments for analogues, mean±SE of 11 for hGRF(1-29)NH2

Molecule | IC50
CC[C@H](C)[C@H](NC(=O)[C@H](C)NC(=O)[C@H](CC(=O)O)NC(=O)[C@@H](C)NC(=O)[C@@H](N)Cc1ccc(O)cc1)C(=O)N[C@@H](Cc1ccccc1)C(=O)N[C@H](C(=O)N[C@@H](C)C(=O)N[C@@H](CO)C(=O)N[C@@H](Cc1ccc(O)cc1)C(=O)N[C@@H](CCCNC(=N)N)C(=O)N[C@@H](CCCCN)C(=O)N[C@H](C(=O)N[C@@H](CC(C)C)C(=O)N[C@@H](C)C(=O)N[C@@H](CCC(N)=O)C(=O)N[C@@H](CC(C)C)C(=O)N[C@@H](CO)C(=O)N[C@@H](C)C(=O)N[C@@H](CCCNC(=N)N)C(=O)N[C@@H](CCCCN)C(=O)N[C@@H](CCCCN)C(=O)N[C@@H](CC(C)C)C(=O)N[C@@H](CCC(N)=O)C(=O)N[C@@H](CC(=O)O)C(=O)N[C@H](C(=O)N[C@@H](CCSC)C(=O)N[C@@H](CO)C(=O)N[C@@H](CCCNC(=N)N)C(N)=O)[C@@H](C)CC)C(C)C)[C@@H](C)O [D-Ala^2, Ala^8, Ala^15, Lys^22] (H-Y[dA]DAIFTASYRKVLAQLSARKKLQDIMSR-NH2; N-terminus assumed) | 0.18 ± 0.08 nM
CC[C@H](C)[C@H](NC(=O)[C@H](C)NC(=O)[C@H](CC(=O)O)NC(=O)[C@@H](C)NC(=O)[C@@H](N)Cc1ccc(O)cc1)C(=O)N[C@@H](Cc1ccccc1)C(=O)N[C@H](C(=O)N[C@@H](CC(N)=O)C(=O)N[C@@H](CO)C(=O)N[C@H](Cc1ccc(O)cc1)C(=O)N[C@@H](CCCNC(=N)N)C(=O)N[C@@H](CCCCN)C(=O)N[C@H](C(=O)N[C@@H](CC(C)C)C(=O)N[C@H](C)C(=O)N[C@@H](CCC(N)=O)C(=O)N[C@@H](CC(C)C)C(=O)N[C@@H](CO)C(=O)N[C@@H](C)C(=O)N[C@@H](CCCNC(=N)N)C(=O)N[C@@H](CCCCN)C(=O)N[C@@H](CCCCN)C(=O)N[C@@H](CC(C)C)C(=O)N[C@@H](CCC(N)=O)C(=O)N[C@@H](CC(=O)O)C(=O)N[C@H](C(=O)N[C@@H](CCSC)C(=O)N[C@@H](CO)C(=O)N[C@@H](CCCNC(=N)N)C(N)=O)[C@@H](C)CC)C(C)C)[C@@H](C)O [D-Ala^2, D-Tyr^10, D-Ala^15, Lys^22] (H-Y[dA]DAIFTNS[dY]RKVL[dA]QLSARKKLQDIMSR-NH2) | 2.49 ± 0.98 nM

same assay, conditions: Table 11; ratio IC50 of hGRF(1-29)NH2 /IC50 analogue

Molecule | Relative affinity
CC[C@H](C)[C@H](NC(=O)[C@H](C)NC(=O)[C@H](CC(=O)O)NC(=O)[C@@H](C)NC(=O)[C@@H](N)Cc1ccc(O)cc1)C(=O)N[C@@H](Cc1ccccc1)C(=O)N[C@H](C(=O)N[C@@H](C)C(=O)N[C@@H](CO)C(=O)N[C@H](Cc1ccc(O)cc1)C(=O)N[C@@H](CCCNC(=N)N)C(=O)N[C@@H](CCCCN)C(=O)N[C@H](C(=O)N[C@@H](CC(C)C)C(=O)N[C@@H](C)C(=O)N[C@@H](CCC(N)=O)C(=O)N[C@@H](CC(C)C)C(=O)N[C@@H](CO)C(=O)N[C@@H](C)C(=O)N[C@@H](CCCNC(=N)N)C(=O)N[C@H](CCCCN)C(=O)N[C@@H](CCCCN)C(=O)N[C@@H](CC(C)C)C(=O)N[C@@H](CCC(N)=O)C(=O)N[C@@H](CC(=O)O)C(=O)N[C@H](C(=O)N[C@@H](CCSC)C(=O)N[C@@H](CO)C(=O)N[C@@H](CCCNC(=N)N)C(N)=O)[C@@H](C)CC)C(C)C)[C@@H](C)O (H-Y[dA]DAIFTAS[dY]RKVLAQLSAR[dK]KLQDIMSR-NH2) | 500 ± 91%
CC[C@H](C)[C@H](NC(=O)[C@H](C)NC(=O)[C@H](CC(=O)O)NC(=O)[C@@H](C)NC(=O)[C@@H](N)Cc1ccc(O)cc1)C(=O)N[C@@H](Cc1ccccc1)C(=O)N[C@H](C(=O)N[C@@H](C)C(=O)N[C@@H](CO)C(=O)N[C@@H](Cc1ccc(O)cc1)C(=O)N[C@@H](CCCNC(=N)N)C(=O)N[C@@H](CCCCN)C(=O)N[C@H](C(=O)N[C@@H](CC(C)C)C(=O)N[C@@H](C)C(=O)N[C@@H](CCC(N)=O)C(=O)N[C@@H](CC(C)C)C(=O)N[C@@H](CO)C(=O)N[C@@H](C)C(=O)N[C@@H](CCCNC(=N)N)C(=O)N[C@@H](CCCCN)C(=O)N[C@@H](CCCCN)C(=O)N[C@@H](CC(C)C)C(=O)N[C@@H](CCC(N)=O)C(=O)N[C@@H](CC(=O)O)C(=O)N[C@H](C(=O)N[C@@H](CCSC)C(=O)N[C@@H](CO)C(=O)N[C@@H](CCCNC(=N)N)C(N)=O)[C@@H](C)CC)C(C)C)[C@@H](C)O [D-Ala^2, Ala^8, Ala^15, Lys^22] (H-Y[dA]DAIFTASYRKVLAQLSARKKLQDIMSR-NH2; N-terminus assumed) | 1333 ± 31%

target: T2, GRF receptor of rat adenopituitary (rat, UniProt Q02644-2); assay: displacement of 125I-Tyr10 hGRF(1-44)NH2 from rat anterior pituitary homogenate; details: not given
T2 sequence: T1 sequence (Q02644 23-423 isoform Q02644-2 limits assumed)

Molecule | IC50 | Relative affinity (%) against hGRF(1-29)NH2
4'-benzoyl-phenylalyl^10 !hGRF(1-29)NH2 (from UniProt P01286) (peptide) | 5.77 nM | 45%
4'-nitro-phenylalanine^10 !hGRF(1-29)NH2 (from UniProt P01286) (peptide) | 4.43 nM | 60%
4'-nitro-phenylanalylalanine^9 !hGRF(1-29)NH2 (from UniProt P01286) (peptide) | 9.97 nM | 27%
D-Ala^2, Ala^8, Ala^15, Lys^22 analogue of hGRF(1-29)NH2 (Table 11, No. 13) (from UniProt P01286) (peptide) |  | 1330%
D-Ala^2, Ala^8, D-Tyr^10, Ala^15, D-Lys^21, Lys^22 analogue of hGRF(1-29)NH2 (Table 11, No. 14) (from UniProt P01286) (peptide) | 0.48 nM | 500%
D-Ala^2, D-Tyr^10,D-Ala^15,Lys^22 ! hGRF(1-29)NH2 (from UniProt P01286) (peptide) |  | 104%
D-Ala^2,D-Tyr^10 ! hGRF(1-29)NH2 (from UniProt P01286) (peptide) | 9.65 nM | 25%
D-Ala^2,D-Tyr^10, D-Lys^21 ! hGRF(1-29)NH2 (from UniProt P01286) (peptide) | 11.6 nM | 21%
D-Ala^2,D-Tyr^10,Lys^22 ! hGRF(1-29)NH2 (from UniProt P01286) (peptide) |  | 490%
His^1, bpa^9, Nle^27 analogue of hGRF(1-29)NH2 (Table 7, number 17) (from UniProt P01286) (peptide) | 4.4 nM | 61%
bpa^0 analogue of hGRF(1-29)NH2 (Table 7, number 13) (from UniProt P01286) (peptide) | 34.5 nM | 8%
bpa^4 analogue of hGRF(1-29)NH2 (Table 7, number 14) (from UniProt P01286) (peptide) | 64.7 nM | 4%
bpa^9 analogue of hGRF(1-29)NH2 (Table 7, number 15) (from UniProt P01286) (peptide) | 28.4 nM | 9%
npa0 analogue of hGRF(1-29)NH2 (Table 7, number 2) (from UniProt P01286) (peptide) |  | 14%
npa^1 analogue of hGRF(1-29)NH2 (Table 7, number 3) (from UniProt P01286) (peptide) | 376 nM | 7%
npa^2 analogue of hGRF(1-29)NH2 (Table 7, number 4) (from UniProt P01286) (peptide) | 751 nM | 0.3%
npa^3 analogue of hGRF(1-29)NH2 (Table 7, number 5) (from UniProt P01286) (peptide) | 197 nM | 1.3%
npa^4 analogue of hGRF(1-29)NH2 (Table 7, number 6) (from UniProt P01286) (peptide) | 8.65 nM | 31%
npa^5 analogue of hGRF(1-29)NH2 (Table 7, number 7) (from UniProt P01286) (peptide) | 27.7 nM | 10%
npa^6 analogue of hGRF(1-29)NH2 (Table 7, number 8) (from UniProt P01286) (peptide) | 30.9 nM | 8.6%
npa^7 analogue of hGRF(1-29)NH2 (Table 7, number 9) (from UniProt P01286) (peptide) | 33.7 nM | 7.9%
npa^8 analogue of hGRF(1-29)NH2 (Table 7, number 10) (from UniProt P01286) (peptide) | 54.1 nM | 5%
octanoyl^30,Cys^31 ! hGRF(1-29)NH2 (from UniProt P01286) (peptide) |  | 35%
